Positions of bridges follow the written chain, without caps; N, C: chain ends. Non-standard residues stand in square brackets, D forms with d. Groups on a side chain read outwards from the residue. Primed or numbered codes have the meaning given here. *: point of attachment. X5 = NH(2-(2-(2-(17-carboxyheptadecanoylamino)ethoxy)ethoxy)ethyl), O=C(O)CCCCCCCCCCCCCCCCC(=O)NCCOCCOCCN*; X6 = (2-(2-(17-carboxyheptadecanoylamino)ethoxy)ethoxy)acetyl, O=C(O)CCCCCCCCCCCCCCCCC(=O)NCCOCCOCC(=O)*; X3 = (2-(2-(15-carboxypentadecanoylamino)ethoxy)ethoxy)acetyl, O=C(O)CCCCCCCCCCCCCCC(=O)NCCOCCOCC(=O)*; biscarboxymethyl = Lys(biscarboxymethyl) = Nepsilon-bis(carboxymethyl)-L-lysine; bis(carboxymethyl) = Lys(biscarboxymethyl) = N6-bis(carboxymethyl)-L-lysine; Palmitoyl(16-(5-tetrazolyl)) = O=C(CCCCCCCCCCCCCCCc1nnn[nH]1)*; biscarboxymethyl(3) = Nepsilon-bis(carboxymethyl) on Lys; Lys(CH2CO2H)2 = N[C@@H](CCCCN(CC(=O)O)CC(=O)O)C(=O)O; C18 diacid = O=C(O)CCCCCCCCCCCCCCCCC(=O)*; Orn = NCCC[C@H](N)C(=O)O; Dab = NCC[C@H](N)C(=O)O; AEEA = NCCOCCOCC(=O)O
B1: Ac-c[Asp-His-D-Phe-Arg-Trp-Lys]-Pro-Pro-Arg-Asp-Lys(biscarboxymethyl)-Lys[(2-{2-[16-(tetrazol-5-yl)hexadecanoylamino]ethoxy}ethoxy)acetyl]-NH2 (peptide)
peptide: Ac-DH[dF]RWKPPRD[Lys(CH2CO2H)2]K([AEEA-Palmitoyl(16-(5-tetrazolyl))])-NH2
modifications: lactam 1-6
SMILES: CC(=O)N[C@H]1CC(=O)NCCCC[C@@H](C(=O)N2CCC[C@H]2C(=O)N2CCC[C@H]2C(=O)N[C@@H](CCCNC(=N)N)C(=O)N[C@@H](CC(=O)O)C(=O)N[C@@H](CCCCN(CC(=O)O)CC(=O)O)C(=O)N[C@@H](CCCCNC(=O)COCCOCCNC(=O)CCCCCCCCCCCCCCCc2nnn[nH]2)C(N)=O)NC(=O)[C@H](Cc2c[nH]c3ccccc23)NC(=O)[C@H](CCCNC(=N)N)NC(=O)[C@@H](Cc2ccccc2)NC(=O)[C@H](Cc2c[nH]cn2)NC1=O

biological target: T1, human MC4 receptor (human, UniProt P32245 1-332); assay: 125I-NDP-α-MSH displacement, BHK-human MC4 membranes (Assay V);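 also: Filter-retained radioactivity read by gamma counting, with affinity obtained through non-linear regression fitting of the binding curves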
T1 construct: whole, on cells; Assayed as membranes of BHK cells stably expressing the receptor; also called melanocortin receptor subtype 4; melanocortin receptor 4
T1 sequence (P32245 whole entry): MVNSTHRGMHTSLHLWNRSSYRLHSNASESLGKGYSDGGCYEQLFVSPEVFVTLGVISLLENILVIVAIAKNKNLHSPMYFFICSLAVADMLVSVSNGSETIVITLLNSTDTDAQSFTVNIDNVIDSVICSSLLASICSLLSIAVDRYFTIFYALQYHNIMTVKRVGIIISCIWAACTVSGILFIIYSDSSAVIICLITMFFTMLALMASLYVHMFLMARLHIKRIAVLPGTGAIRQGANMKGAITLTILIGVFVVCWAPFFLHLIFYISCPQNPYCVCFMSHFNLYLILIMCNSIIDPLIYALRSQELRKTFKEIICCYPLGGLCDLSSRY

Binder	Ki [nM]
Ac-EH[dF]RW[Orn][dP][dP]RDK(biscarboxymethyl(3))K([AEEA-Palmitoyl(16-(5-tetrazolyl))])-NH2 (lactam 1-6)	4.6
Ac-[Orn]H[dF]RWDPPREK(biscarboxymethyl)K(X3)-NH2 (lactam 1-6)	2.2
Ac-EH[dF]RW[Dab]PPRDK(biscarboxymethyl(3))K([AEEA-Palmitoyl(16-(5-tetrazolyl))])-NH2 (lactam 1-6)	39
Ac-[Orn]H[dF]RWDPPREK(biscarboxymethyl)K(X6)-NH2 (lactam 1-6)	0.8
Ac-[Orn]H[dF]RWDPSSSK(bis(carboxymethyl))SSK([AEEA-C18 diacid])-NH2 (lactam 1-6)	0.8
Ac-EH[dF]RW[Orn]PPRDK(biscarboxymethyl)K(X6)-NH2 (lactam 1-6)	0.9
Ac-EH[dF]RW[Orn]PPRDK(biscarboxymethyl)K(X3)-NH2 (lactam 1-6)	5.8
Ac-[Orn]H[dF]RWDPSSSK(bis(carboxymethyl))SSK([AEEA-Palmitoyl(16-(5-tetrazolyl))])-NH2 (lactam 1-6)	0.9
Ac-[Dab]H[dF]RWDPSSSK(biscarboxymethyl(3))SS-X5 (lactam 1-6)	10.8
B1	13

biological target: T2, MC1 receptor (UniProt Q01726 1-317, limits assumed); assay: 125I-NDP-α-MSH displacement, BHK-MC1 membranes (Assay IV);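 also: membrane incubations stopped by filtration, retained radioactivity counted, Ki fitted by nonlinear regression to binding curves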
T2 construct: whole, on cells; also called melanocortin receptor subtype 1; melanocortin receptor 1
T2 sequence (Q01726 whole entry): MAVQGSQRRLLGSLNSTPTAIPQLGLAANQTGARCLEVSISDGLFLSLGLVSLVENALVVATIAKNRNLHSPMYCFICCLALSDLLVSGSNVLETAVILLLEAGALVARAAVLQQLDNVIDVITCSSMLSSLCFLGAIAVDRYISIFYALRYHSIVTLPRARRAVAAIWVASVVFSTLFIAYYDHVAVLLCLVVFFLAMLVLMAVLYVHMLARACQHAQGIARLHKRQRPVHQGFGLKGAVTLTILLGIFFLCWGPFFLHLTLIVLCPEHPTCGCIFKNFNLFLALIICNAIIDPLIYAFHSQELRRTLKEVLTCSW
Protocol: The MC1 receptor binding assay was performed on BHK cell membranes stably expressing the MC1 receptor. […] Test compounds were dissolved in DMSO. […] Alternatively, HSA may be substituted with ovalbumin. The samples were incubated at 30° C. for 90 min. in Costar round-bottom microtiter plates. Incubation was terminated by filtration on a Packard harvester filtermate. […] The filters were washed with ice-cold 0.9% NaCl 8-10 times. […] The plates were counted in a Topcounter (1 min/well).
The data were analysed by non-linear regression analysis of binding curves, using the Windows™ program GraphPad™ Prism (GraphPad Software, USA).

Binder	Ki [nM]
Ac-EH[dF]RW[Orn][dP][dP]RDK(biscarboxymethyl(3))K([AEEA-Palmitoyl(16-(5-tetrazolyl))])-NH2 (lactam 1-6)	8840
Ac-[Orn]H[dF]RWDPPREK(biscarboxymethyl)K(X3)-NH2 (lactam 1-6)	2140
Ac-EH[dF]RW[Dab]PPRDK(biscarboxymethyl(3))K([AEEA-Palmitoyl(16-(5-tetrazolyl))])-NH2 (lactam 1-6)	3420
Ac-[Orn]H[dF]RWDPPREK(biscarboxymethyl)K(X6)-NH2 (lactam 1-6)	1940
Ac-[Orn]H[dF]RWDPSSSK(bis(carboxymethyl))SSK([AEEA-C18 diacid])-NH2 (lactam 1-6)	141
Ac-EH[dF]RW[Orn]PPRDK(biscarboxymethyl)K(X6)-NH2 (lactam 1-6)	4690
Ac-EH[dF]RW[Orn]PPRDK(biscarboxymethyl)K(X3)-NH2 (lactam 1-6)	3970
Ac-[Orn]H[dF]RWDPSSSK(bis(carboxymethyl))SSK([AEEA-Palmitoyl(16-(5-tetrazolyl))])-NH2 (lactam 1-6)	5610
Ac-[Dab]H[dF]RWDPSSSK(biscarboxymethyl(3))SS-X5 (lactam 1-6)	9130
B1	279
